Measured values: patent US20040265915A1, “Method to identify regulators of cellular activation using Bcl10” (priority 2003, published 2004)

System: Bcl10-YFP POLKADOTS formation
Assay: Bcl10-YFP POLKADOTS formation in antigen-stimulated D10 T cells, fluorescence microscopy
Assay type: cell-based, murine
Conditions: D10 T cells with conalbumin-loaded CH12 B cells (100 μg/ml), fixed after 20 min, >200 T cells counted, FIG. 4
Experimental: D10-IL2 (henceforth referred to as D10) is an IL-2 dependent subclone of the CD4^+ T cell clone D10 (16), maintained as described (17). Primary T cell blasts were prepared by stimulation of spleen and lymph node cells with 100 μg/ml plate-bound anti-TCRP for 48 hr, with IL-2 added for the final 24 hr of stimulation. CH12H-2^k B cells and CHb H-2^b B cells (18) were maintained as described previously (17).
Murine PKCθ was fused to a C-terminal linker (GRVELGR; SEQ ID NO:7) followed by GFP or CFP (19), modified by mutations that improve folding at 37° C. (20). Two I.M.A.G.E. expressed sequence tag (EST) clones encoding murine Bcl10 were purchased (2123397 and 3026026; ResGen). Clone 3026026 was used for PCR amplification of Bc 10, adding the C-terminal linker GR, which was then fused to the previously described modified YFP gene (17). […]
The inventors next examined whether formation of Bcl10 POLKADOTS is PKC-dependent (FIG. 4 and FIG. 5). […] Cells were fixed after 20 minutes and examined by fluorescence microscopy. For each group, >200 T cells were counted, and percentages with and without POLKADOTS were determined.
CH12 B cells that had been pre-incubated with no antigen or with 250 μg/ml conalbumin protein were then added. Cells were fixed after 30 min and examined by fluorescence microscopy. […]

B1: conalbumin: conalbumin protein, specific antigen loaded on CH12 B cells to stimulate D10 T cells (protein, UniProt P02789 20-705, looked up)
Ovotransferrin: APPKSVIRWCTISSPEEKKCNNLRDLTQQERISLTCVQKATYLDCIKAIANNEADAISLDGGQAFEAGLAPYKLKPIAAEVYEHTEGSTTSYYAVAVVKKGTEFTVNDLQGKTSCHTGLGRSAGWNIPIGTLLHRGAIEWEGIESGSVEQAVAKFFSASCVPGATIEQKLCRQCKGDPKTKCARNAPYSGYSGAFHCLKDGKGDVAFVKHTTVNENAPDQKDEYELLCLDGSRQPVDNYKTCNWARVAAHAVVARDDNKVEDIWSFLSKAQSDFGVDTKSDFHLFGPPGKKDPVLKDLLFKDSAIMLKRVPSLMDSQLYLGFEYYSAIQSMRKDQLTPSPRENRIQWCAVGKDEKSKCDRWSVVSNGDVECTVVDETKDCIIKIMKGEADAVALDGGLVYTAGVCGLVPVMAERYDDESQCSKTDERPASYFAVAVARKDSNVNWNNLKGKKSCHTAVGRTAGWVIPMGLIHNRTGTCNFDEYFSEGCAPGSPPNSRLCQLCQGSGGIPPEKCVASSHEKYFGYTGALRCLVEKGDVAFIQHSTVEENTGGKNKADWAKNLQMDDFELLCTDGRRANVMDYRECNLAEVPTHAVVVRPEKANKIRDLLERQEKRFGVNGSEKSKFMMFESQNKDLLFKDLTKCLFKVREGTTYKEFLGDKFYTVISSLKTCNPSDILQMCSFLEGK
cells with Bcl10-YFP POLKADOTS: over 80%
